What was measured:
[1] = target: recombinant C3d D122A (D1115A) (human) (UniProt P01024); assay: SPR
[2] = target: recombinant C3d E117A (E1110A), with C17A (C1011A) (human, UniProt P01024 996-1306, E117A (E1110A)); assay: SPR
[3] = target: recombinant C3d D122A (D1115A), with C17A (C1011A) (human, UniProt P01024 996-1306, D122A (D1115A)); assay: SPR
[4] = target: recombinant C3d E117A/D122A (E1110A/D1115A), with C17A (C1011A) (human, UniProt P01024 996-1306, E117A (E1110A) | D122A (D1115A)); assay: SPR
plasma-derived C3d = plasma-derived C3d (UniProt P01024 996-1303); assay: NMR titration

Molecule	Kd [1]	fold decrease in binding against C3d E160A and I164A [2]	fold decrease in binding against wild-type C3d [2]	fold decrease in binding against C3d E160A and I164A [3]	fold decrease in binding against wild-type C3d [3]	Kd [4]	fold decrease in affinity against wild-type C3d [4]	binding result (plasma-derived C3d)
complement factor H CCP19–20, wild type (FH19–20) (from UniProt P08603 1108-1231) (domain or fragment)	46 µM	–	–	–	–	–	–	–
FH19–20 L1189F (from UniProt P08603 1108-1231) (domain or fragment)	46 µM	–	–	–	–	–	–	–
FH19–20 (wild-type recombinant fragment of human complement factor H, CCP modules 19 and 20) (domain or fragment, UniProt P08603 1108-1231, looked up, 15N-labelled (NMR experiments only)) KCGPPPPIDNGDITSFPLSVYAPASSVEYQCQNLYQLEGNKRITCRNGQWSEPPKCLHPCVISREIMENYNIALRWTAKQKLYSRTGESVEFVCKRGYRLSSRSHTLRTTCWDGKLEYPTCAKR	–	2 fold	4 fold	3 fold	6 fold	~30000 µM	~1600 fold	binds

From PMC3512577 (Nature structural & molecular biology, 2011)
